# In patent publication US20130236430A1, “PROLIFERATION, SEPARATION AND TRANSPLANTATION OF INHIBITORY NEURON PROGENITORS AND PROLIFERATION PROMOTING SUBSTANCES FOR THE PROGENITORS” (priority 2010, published 2013):
# B1: Activin A (protein, UniProt P08476 311-426, looked up)
# Inhibin beta A chain: GLECDGKVNICCKKQFFVSFKDIGWNDWIIAPSGYHANYCEGECPSHIAGTSGSSLSFHSTVINHYRMRGHSPFANLKSCCVPTKLRPMSMLYYDDGQNIIKKDIQNMIVEECGCS
# modifications: Inhibin beta A chain
# Experiments:
# [1] = Infusion of peroxidase tracer protein into the cistern magna, distribution visualized by DAB reaction; format: in vivo; settings: infused into cistern magna of mouse, formalin fixing after 30 minutes; FIG. 12
# Description: In the case of the microperoxidase being not able to penetrate, a barrier corresponding to the blood brain barrier is judged to be present.
# It has already discussed that the most of the inhibitory neuron progenitors were distributed to the proximity to the brain surface or the subventricular zone. In order to establish a technique for delivering Activin A to the proximity to the brain surface or the subventricular zone, a protein which can readily be detected was employed instead of Activin A itself in a monitoring experiment. The protein employed was a microperoxidase which was a peptide obtained by enzymatic degradation of cytochrome C and purification of a heme-containing moiety. A caudal part of a mouse cerebellum has a large subarachnoid cavity referred to as the cistern magna, into which the microperoxidase was infused, and after 30 minutes the formalin fixing was conducted and the enzyme distribution was visualized by a color development via DAB reaction (peroxidase reaction). It is defined that when the microperoxidase cannot permeate then a barrier corresponding to the blood brain barrier exists. […] It means that there was no barrier corresponding to BBB between the subarachnoid cavity and the brain parenchyma (the boundary is the pia matter) or between the ventricle and the brain parenchyma (the boundary is a ventricular zone). […]
# [2] = system: inhibitory neuron progenitors (GFP positive cells from GAD67-GFP P0 mouse cerebral cortex); experiment: BrdU uptake into DNA of sorted GFP positive cells cultured in neural stem cell culture medium with or without Activin A; format: cell-based; settings: neural stem cell culture medium with (M+A) or without (M) Activin A at 20 ng/ml; FIG. 10
# Procedure: The cerebral cortex of a GAD67-GFP P0 mouse was taken out, treated with a protease (trypsin) to disperse the cells, which were subjected to a cell sorter to obtain GFP positive cells. A neural stem cell culture medium (Neurobasal medium +5% B27 supplement, 20 ng/ml bFGF, 20 ng/ml EGF) was combined with a E18 mouse fetal brain tissue and cultured overnight for conditioning, thereafter the cells were removed and then 5 μg/ml of BrdU was added and the GFP positive cells taken out by the cell sorter were cultured for 2 to 7 days and then fixed. As a result, a part of the GFP positive GABAergic neuron progenitors was confirmed to uptake BrdU in a conditioned neural stem cell culture medium to undergo a cell division (FIG. 9). When the GFP positive cells were cultured in a neural stem cell culture medium which had not been conditioned with the fetal brain tissue, the image as of FIG. 9 was not obtained.
# The proliferation may be successful in the neural stem cell culture medium supplemented with essential proliferation factors, thus establishing an essential proliferation factor detection system.
# [3] = system: inhibitory neuron progenitors in the brain; experiment: In vivo infusion of Activin A solution into the brain of juvenile GAD67-GFP mouse, EdU labelling, histological observation; settings: P3 GAD67-GFP mouse; 1 μl of 1 μg/ml Activin A solution, one side; EdU i.p. after 30 minutes; examined after 1 week; FIG. 11
# Procedure: Thereafter, the animal was maintained for 1 week, anesthetized, fixed, and examined histologically.
# Also in order to verify the in vivo effect of Activin A, an Activin A solution was injected directly into the brain of a 3-day old (P3) juvenile mouse. Thirty minutes after this addition, EdU was injected intraperitoneally. […] Then the subsequent issue is a method for delivering Activin A to the inhibitory neuron progenitors inside the brain. Such a method is preferably a method avoiding any damage to the brain, such as penetration of an injection needle.
Molecule,distribution from the cistern via the ventricles to the lateral ventricle and into the brain parenchyma [1],permeation from the subarachnoid cavity through the pia matter into the brain parenchyma [1],uptake of BrdU into the DNA (increase in the DNA amount associated with cell division) [2],EdU positive cells (considered pia progenitors) in the pia matter on the infusion side [3],number of GFP/EdU double-stained inhibitory neurons in the infused hemisphere compared with the opposite hemisphere [3]
microperoxidase,migrated from the surface of the lateral ventricle to the brain parenchyma,permeated from the pia matter into the brain parenchyma,–,–,–
B1,–,–,increase in the DNA amount associated with the cell division was evident,a large number,significantly larger number
